Test [1] concerns the target T1, 提取于人血浆的胱抑素C (native human cystatin C, HyTest) (human, UniProt P01034 27-146).
T1 construct: mature; also called CysC; 天然CysC蛋白
T1 sequence (looked up): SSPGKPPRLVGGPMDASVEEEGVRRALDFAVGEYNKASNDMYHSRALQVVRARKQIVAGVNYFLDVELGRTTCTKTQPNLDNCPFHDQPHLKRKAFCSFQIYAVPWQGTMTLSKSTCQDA
The experiment in a line: indirect ELISA, CysC (HyTest) coated at 1 μg/mL, hybridoma supernatant, HRP goat anti-mouse IgG. (In general: ELISA stands for enzyme-linked immunosorbent assay.)

The target in test [2] is T1, 提取于人血浆的胱抑素C (native human cystatin C, …). The experiment in a line: Western blot of native CysC (HyTest) with HRP-labelled scFv.

The source of these data is patent publication CN107383198A (ZONHON BIOPHARMA INST INC, dated 2017).

B1: 抗体M12 (antibody secreted by hybridoma cell line M12) (antibody, V domains shown)
VH: QVQLQQPGSELVRPGTSVKLSCRASGYTFTSYWMHWVKQRHGQGLEWLGNVDPGSGTTNYEENFKTKGTLTVDTSSSTVYMHLSSLTSEDSAVYYCTAGFDYWGQGTTLTVSA
VL: DIQMNQSPSSLSASLGDTITITCHASQNINVWLGWFQQKPENIPKLLIYKASTLHTGVPSRFSGSGSGTVFTLTISSPQPEDIATYYCQQGQTYPLTFGAGTKLEIK
notes: Mouse monoclonal antibody tested as hybridoma culture supernatant and detected with HRP goat anti-mouse IgG
For B1, the binding result in test [1] is listed as “binds”.

B2: 单链抗体C12 (anti-human cystatin C scFv C12) (scFv)
scFv: QVQLQQPGSELVRPGTSVKLSCRASGYTFTSYWMHWVKQRHGQGLEWLGNVDPGSGTTNYEENFKTKGTLTVDTSSSTVYMHLSSLTSEDSAVYYCTAGFDYWGQGTTLTVSAGGGGSGGGGSGGGGSDIQMNQSPSSLSASLGDTITITCHASQNINVWLGWFQQKPENIPKLLIYKASTLHTGVPSRFSGSGSGTVFTLTISSPQPEDIATYYCQQGQTYPLTFGAGTKLEIK
notes: Used HRP-labelled in the Western blot and colloidal-gold-labelled in the test card; also called C12-scFv-(HIS)6; C12-HRP
Regarding B2, in test [2], the binding result was “binds”.
